From patent publication US20240392024A1 (SHANGHAI CELGEN BIO PHARMACEUTICAL, published 2024)
Positions count from the first letter of the chain named. Several values for one entry are separate records, joined by “and”; a condition that tells them apart may be missing. Equal entries are not always repeated.

T1: TNFR2-His (Sino Biological, 10417-H08H, NP_001057.1 Met1-Asp257, with multi-histidine tag expressed on … (human, UniProt P20333 23-257))
T1 construct: range 1-257; Bought protein; also called recombinant human TNFR2 protein; TNFR2-His antigen; not shown: C-terminal multi-histidine tag
T1 sequence (looked up): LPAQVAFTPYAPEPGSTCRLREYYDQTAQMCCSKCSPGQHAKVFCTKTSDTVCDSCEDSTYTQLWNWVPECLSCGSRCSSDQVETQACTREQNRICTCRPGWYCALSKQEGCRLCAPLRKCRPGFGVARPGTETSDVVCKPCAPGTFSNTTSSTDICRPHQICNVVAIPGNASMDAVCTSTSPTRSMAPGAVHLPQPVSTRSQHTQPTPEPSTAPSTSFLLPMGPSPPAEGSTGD

T2: human TNFR2 on the cell membrane (human, UniProt P20333 23-461)
T2 construct: whole, on cells; One molecule for all cell formats; also called TNFR2-CHO cells; CHO-TNFR2
T2 sequence (looked up): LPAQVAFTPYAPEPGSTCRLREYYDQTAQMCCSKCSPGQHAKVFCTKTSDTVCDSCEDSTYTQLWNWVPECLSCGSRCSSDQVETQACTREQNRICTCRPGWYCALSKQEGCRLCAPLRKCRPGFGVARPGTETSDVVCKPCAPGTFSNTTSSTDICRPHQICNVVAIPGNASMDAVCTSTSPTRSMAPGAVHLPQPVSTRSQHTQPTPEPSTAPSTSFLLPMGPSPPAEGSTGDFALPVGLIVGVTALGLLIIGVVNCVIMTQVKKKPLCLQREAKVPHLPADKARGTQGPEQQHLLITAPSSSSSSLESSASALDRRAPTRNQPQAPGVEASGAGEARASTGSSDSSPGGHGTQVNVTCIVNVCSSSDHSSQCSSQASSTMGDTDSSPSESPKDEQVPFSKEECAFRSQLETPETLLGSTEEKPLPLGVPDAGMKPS

B1: 33C12huVH2 + huVL2(P07301) (antibody, V domains shown)
VH: EVQLVESGGGLVKPGGSLRLSCAASGFTFSDYTMSWVRQAPGKGLEWVATISTGGSYTYYPDSVKGRFTISRDNAKNTLYLQMSSLRAEDTAVYYCARDGGYDGDYFDYWGQGTTVTVSS
VL: ENVLTQSPATLSLSPGERATLSCRASSSVSSSYLHWYQQKPGQAPRLWIYRTSNLASGVPARFSGSGSGTDFTLTISRLEPEDFAVYYCQQYSGYPLTFGGGTKLEIK
notes: Humanized 33C12
B2: 33C12huVH3 + huVL1(P07300) (antibody, V domains shown)
VH: B1 VH with P61A, T78S, S84N
VL: B1 VL with L21M, F72Y, L79V
notes: Humanized 33C12
B3: 33C12huVH3 + huVL3(P07304) (antibody, V domains shown)
VH: B1 VH with P61A, T78S, S84N
VL: B1 VL with N2I, W48L, S57T, V59I, A61D
notes: Humanized 33C12
B4: 33C12huVH1 + huVL1(P07298) (antibody, V domains shown)
VH: B1 VH with E1D, A97T
VL: B1 VL with L21M, F72Y, L79V
notes: Humanized 33C12
B5: 33C12huVH2 + huVL3(P07303) (antibody, V domains shown)
VH: B1 VH
VL: B1 VL with N2I, W48L, S57T, V59I, A61D
notes: Humanized 33C12
B6: 33C12huVH2 + huVL1(P07299) (antibody, V domains shown)
VH: B1 VH
VL: B1 VL with L21M, F72Y, L79V
notes: Humanized 33C12
B7: 33C12huVH3 + huVL2(P07302) (antibody, V domains shown)
VH: B1 VH with P61A, T78S, S84N
VL: B1 VL
notes: Humanized 33C12
B8: 11G2huVH4 + huVL3(P07274) (antibody, V domains shown)
VH: QVQLVQSGAEVKKPGASVKVSCKASGYTFITYDINWVRQAPGQGLEWIGWIYPRDGNTQYAQKFQGRVTMTTDTSTSTAYMELRSLRSDDTAVYYCARGDRDYGYFDVWGQGTTVTVSS
VL: DIQMTQSPSSLSASVGDRVTITCQASQDISNYLNWYQQKPGKAPKLLIYFKSKLETGVPSRFSGSGSGTDFTFTISSLQPEDIATYYCQQGNTLPLTFGGGTKLEIK
notes: Humanized 11G2
B9: 11G2huVH4 + huVL2(P07269) (antibody, V domains shown)
VH: B8 VH
VL: B8 VL with Q24R, E55H, T56S, F73L, I83F
notes: Humanized 11G2
B10: 11G2huVH5 + huVL3(P07275) (antibody, V domains shown)
VH: B8 VH with P41T, T72R, D73N, T76I, R84S, D89E
VL: B8 VL
notes: Humanized 11G2
B11: 11G2huVH5 + huVL2(P07270) (antibody, V domains shown)
VH: B8 VH with P41T, T72R, D73N, T76I, R84S, D89E
VL: B8 VL with Q24R, E55H, T56S, F73L, I83F
notes: Humanized 11G2
B12: 12E12huVH4 + huVL4(P07291) (antibody, V domains shown)
VH: EVQLVQSGAEVKKPGATVKISCKVSGFNIKDFYIHWVQQAPGKGLEWIGRVDPEDGNTEYAPNFQDRVTITADTSTDTAYMELSSLRSEDTAVYYCSTWDGFSYFDYWGQGTTVTVSS
VL: EAVVTQSPATLSLSPGERATLSCRSSTGPVTTNNYANWVQQKPGQAFRGLIGGTNDRAPGIPARFSGSGSGTDTTLTISSLQPEDFAVYYCALWYRNHWVFGGGTKLEIK
notes: Humanized 12E12
B13: 12E12-huVH6 + huVL2(P08937) (antibody, V domains shown)
VH: QVQLVQSGAEVKKPGASVKVSCKASGYTITDFYIHWVRQAPGQGLEWIGRVDPEDGNTEYAPNFQDRATMTTDTSTSTAYLELSSLRSEDTAVYYCSTWDGFSYFDYWGQGTTVTVSS
VL: QAVVTQEPSLTVSPGGTVTLTCRSSTGPVTTNNYANWVQQKPGQAFRGLIGGTNDRAPGVPARFSGSLLGGKAALTLSGAQPEDEAEYYCALWYRNHWVFGGGTKLTVL
notes: Humanized 12E12
B14: 12E12-huVH8 + huVL2(P08939) (antibody, V domains shown)
VH: B12 VH with F27Y, N28T, K30T, I48M
VL: B13 VL
notes: Humanized 12E12

Molecular target: T1, TNFR2-His (Sino Biological, 10417-H08H, …)
Experiment: ELISA, coated TNFR2-His
Outline: (§1)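 ELISA on plates coated with recombinant human TNFR2 carrying a C-terminal His tag, then blocked. Serially diluted antibodies were incubated, followed by an enzyme-labelled anti-IgG secondary antibody. Plates were developed with TMB and read on a microplate reader. EC50 is reported from the dilution series.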

Binder	EC50
B1	0.886 nM
B2	1.08 nM
B3	0.354 nM
B4	0.433 nM
B5	0.771 nM
B6	1.46 nM
B7	2.03 nM
B8	0.5 nM
B9	0.364 nM
B10	0.149 nM
B11	0.353 nM

Molecular target: T2, human TNFR2 on the cell membrane
Experiment: flow cytometry, CHO-TNFR2 cells
Outline: (§2)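 Flow cytometry on CHO cells stably overexpressing human TNFR2, made by pcDNA3.4-TNFR2 transfection, drug selection and single-clone sorting. Cells in 96-deep-well plates were incubated with serially diluted antibodies, washed and stained with a fluorescent anti-IgG secondary antibody. Samples were read on a Beckman CytoFLEX. EC50 is reported from the dilution series.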

Binder	EC50
B1	0.873 nM
B2	1.44 nM
B3	1.08 nM
B4	0.448 nM
B5	1.12 nM
B6	2.27 nM
B7	3.01 nM
B8	0.226 nM
B9	0.183 nM
B10	0.056 nM
B11	0.162 nM

Molecular target: T2, human TNFR2 on the cell membrane
Experiment: flow cytometry on CHO-TNFR2 cells
Outline: as §2

Binder	EC50
B8	0.0338 µg/mL
B9	0.0273 µg/mL
B10	0.0084 µg/mL
B11	0.0242 µg/mL

Molecular target: T2, human TNFR2 on the cell membrane
Experiment: flow cytometry on CHO-TNFR2 cells
Remark: another data set of the same source
Outline: as §2

Binder	EC50
B1	0.13 µg/mL
B2	0.214 µg/mL
B3	0.161 µg/mL
B4	0.0669 µg/mL
B5	0.167 µg/mL
B6	0.34 µg/mL
B7	0.449 µg/mL

Molecular target: T2, human TNFR2 on the cell membrane
Experiment: flow cytometry on CHO-TNFR2 cells
Remark: another data set of the same source
Outline: as §2

Binder	EC50
B12	0.0215 µg/mL and 0.144 nM
B13	0.0096 µg/mL and 0.064 nM
B14	0.0158 µg/mL and 0.106 nM

Molecular target: T1, TNFR2-His (Sino Biological, 10417-H08H, …)
Experiment: ELISA, plate coated with TNFR2-His
Outline: as §1

Binder	EC50
B8	0.0746 µg/mL
B9	0.0544 µg/mL
B10	0.0222 µg/mL
B11	0.0527 µg/mL

Molecular target: T1, TNFR2-His (Sino Biological, 10417-H08H, …)
Experiment: ELISA, plate coated with TNFR2-His
Remark: another data set of the same source
Outline: as §1

Binder	EC50
B1	0.132 µg/mL
B2	0.161 µg/mL
B3	0.0528 µg/mL
B4	0.0646 µg/mL
B5	0.115 µg/mL
B6	0.218 µg/mL
B7	0.303 µg/mL

Molecular target: T1, TNFR2-His (Sino Biological, 10417-H08H, …)
Experiment: BLI, antibody captured on AHC probe, TNFR2 in solution
Outline: (§3)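 Kon, koff and Kd were derived from kinetic association measurements by bio-layer interferometry on an Octet in Basic Kinetics mode. Antibody-capture sensors held antibodies at 50 nM in Q buffer (10 mM PBS pH 7.4, 0.02% Tween 20, 0.2% BSA). These sensors were then placed in recombinant human TNFR2, diluted 2-fold in Q buffer from a top concentration of 100 nM.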

Binder	Kd	koff	kon
B12	4.84 nM	0.00379 s⁻¹	782000 M⁻¹ s⁻¹
B13	5.28 nM	0.00449 s⁻¹	849000 M⁻¹ s⁻¹
B14	3.92 nM	0.00442 s⁻¹	1.13e+06 M⁻¹ s⁻¹

Molecular target: T1, TNFR2-His (Sino Biological, 10417-H08H, …)
Experiment: ELISA, plate coated with TNFR2-His (first test)
Outline: as §1

Binder	EC50
B12	0.0416 µg/mL and 0.279 nM

Molecular target: T1, TNFR2-His (Sino Biological, 10417-H08H, …)
Experiment: BLI, antibody captured on AHC probe, TNFR2-His in solution
Outline: as §3

Binder	Kd	koff	kon
B8	20.1 nM	0.00511 s⁻¹	254000 M⁻¹ s⁻¹
B9	13.5 nM	0.00379 s⁻¹	281000 M⁻¹ s⁻¹
B10	14.1 nM	0.00302 s⁻¹	213000 M⁻¹ s⁻¹
B11	8.13 nM	0.00265 s⁻¹	326000 M⁻¹ s⁻¹

Molecular target: T1, TNFR2-His (Sino Biological, 10417-H08H, …)
Experiment: as above
Remark: another data set of the same source
Outline: as §3

Binder	Kd	koff	kon
B1	17.8 nM	0.00279 s⁻¹	157000 M⁻¹ s⁻¹
B2	12.7 nM	0.00223 s⁻¹	175000 M⁻¹ s⁻¹
B3	48.7 nM	0.00368 s⁻¹	75600 M⁻¹ s⁻¹
B4	17.7 nM	0.00171 s⁻¹	96400 M⁻¹ s⁻¹
B5	16.3 nM	0.00167 s⁻¹	102000 M⁻¹ s⁻¹
B6	15.1 nM	0.0013 s⁻¹	86100 M⁻¹ s⁻¹
B7	11.9 nM	0.00188 s⁻¹	158000 M⁻¹ s⁻¹

Molecular target: T1, TNFR2-His (Sino Biological, 10417-H08H, …)
Experiment: ELISA, plate coated with TNFR2-His (second test)
Outline: as §1

Binder	EC50
B13	0.0322 µg/mL and 0.216 nM
B14	0.0284 µg/mL and 0.19 nM
